This note sets out measurements from US20230050846A1, “TREATMENT OF HEPATIC AND CARDIOVASCULAR DISORDERS” (LIFESEARCH, priority 2019, published 2023).

The target of experiment [1] is Human F1Fo-ATPase purified from HepG2 cells (human). Briefly: SPR (BIAcore T200), His-tagged peptide immobilised on NTA chip, purified F1Fo-ATPase as analyte, single-cycle kinetics.
Experiment [2] shares this target. Description: SPR (BIAcore T200), single-cycle kinetics; peptide immobilised as ligand on NTA chip, F1Fo-ATPase as analyte injected at 31.25, 62.5, 125, 250 and 500 nM.
The target is the same in experiment [3]. Description: SPR (BIAcore T200), single-cycle kinetics; peptide immobilised as ligand on streptavidin chip, F1Fo-ATPase as analyte injected at 31.25, 62.5, 125, 250 and 500 nM.
The target is the same in experiment [4]. Briefly: SPR (BIAcore T200), biotinylated peptide immobilised on streptavidin chip, purified F1Fo-ATPase as analyte, single-cycle kinetics.

Square brackets hold non-standard residues; d marks the D form. Ends that are not written are not given here. * marks the point of attachment. Biotin = O=C1N[C@H]2[C@H](CS[C@H]2CCCCC(=O)*)N1; Palmitoyl = CCCCCCCCCCCCCCCC(=O)*; AEEA = NCCOCCOCC(=O)O

B1: Formula (I)-His-tag: CH3CO-[SEQ ID NO: 1]-HHHHHH (peptide)
peptide: Ac-RGAGSIREAGGAFGKREQAEEERYFRAQSREHHHHHH
For the molecule B1, in experiment [1], the Kd is 19 nM. The koff in experiment [2] stood at 0.000643 s⁻¹.

B2: Formula (II)-Biotin: CH3CO-[SEQ ID NO: 1]-K-[palmitoyl]-AEEAc-K-[biotinyl]-NH2 (peptide)
peptide: Ac-RGAGSIREAGGAFGKREQAEEERYFRAQSREK(Palmitoyl)[AEEA]K(Biotin)-NH2
SMILES: CCCCCCCCCCCCCCCC(=O)NCCCC[C@H](NC(=O)[C@H](CCC(=O)O)NC(=O)[C@H](CCCNC(=N)N)NC(=O)[C@H](CO)NC(=O)[C@H](CCC(N)=O)NC(=O)[C@H](C)NC(=O)[C@H](CCCNC(=N)N)NC(=O)[C@H](Cc1ccccc1)NC(=O)[C@H](Cc1ccc(O)cc1)NC(=O)[C@H](CCCNC(=N)N)NC(=O)[C@H](CCC(=O)O)NC(=O)[C@H](CCC(=O)O)NC(=O)[C@H](CCC(=O)O)NC(=O)[C@H](C)NC(=O)[C@H](CCC(N)=O)NC(=O)[C@H](CCC(=O)O)NC(=O)[C@H](CCCNC(=N)N)NC(=O)[C@H](CCCCN)NC(=O)CNC(=O)[C@H](Cc1ccccc1)NC(=O)[C@H](C)NC(=O)CNC(=O)CNC(=O)[C@H](C)NC(=O)[C@H](CCC(=O)O)NC(=O)[C@H](CCCNC(=N)N)NC(=O)[C@@H](NC(=O)[C@H](CO)NC(=O)CNC(=O)[C@H](C)NC(=O)CNC(=O)[C@H](CCCNC(=N)N)NC(C)=O)[C@@H](C)CC)C(=O)NCCOCCOCC(=O)N[C@@H](CCCCNC(=O)CCCC[C@@H]1SC[C@@H]2NC(=O)N[C@@H]21)C(N)=O
In the case of B2, in experiment [3], the Kd came to 3 nM and the koff was 6.85e-05 s⁻¹. This molecule also displayed a Kd in experiment [4] of 4.45 nM.
